US20220259593A1, “CONTROL OF MAMMALIAN GENE DOSAGE USING CRISPR” (The Regents of the University of California, priority 2019, published 2022)

B1: cr687 (nucleic acid)
guide: GTTTAAGAGCTAAGCTGGAAACAGCATAGCAAGTTTAAATAAGGCTAGTCCGTTATCAACTTGAAAAAGTGGCACTGAGTCGGTGCT
modifications: listed as DNA, chemistry not fully specified
B2: cr756 (nucleic acid)
guide: GTTTAAGAGCTAAGCTGGAAACAGCATAGCAAGTTTAAATAAGGTTAATCCGTTATCAACTTGAAAAAGTGGCAACGAGTCGTTGCT
modifications: listed as DNA, chemistry not fully specified
B3: cr569 (nucleic acid)
guide: GTTTAAGAGCTAAGCTGGAAACAGCATGGCAAGTTTAAATAAGGCTCGTCCGTTATGAACTTGAAAAAGTGGCACCGAGTCGGTGCT
modifications: listed as DNA, chemistry not fully specified
B4: cr201 (nucleic acid)
guide: GTTTAAGAGCTAAGCTGGAAACAGCATAGCAAGTTTAAATAAAGCTAGTCTGTTATCAACTTGAAAAAGTGGCACCGAGTCGGTGCT
modifications: listed as DNA, chemistry not fully specified
B5: cr966 (nucleic acid)
guide: GTTTAAGAGCTAAGCTGGAAACAGCATAGCAAGTTTAAATAAGGCTAGTCCGTTATCAAGTTGAAAAACTGGCATGGAGTCCATGCT
modifications: listed as DNA, chemistry not fully specified
B6: cr523 (nucleic acid)
guide: GTTTAAGAGCTAAGCTGGAAACAGCATAGCAAGCTTAAATAAGGCTAGTCCGTTATCAACTTGAAAAAGTGTCACCGAGTCGGTGAT
modifications: listed as DNA, chemistry not fully specified
B7: cr192 (nucleic acid)
guide: GTTTAAGAGCTAAGCTGGAAACAGCATAGCAAGTTTAAATAAGGCTAGTCCGTTATCAACTTGAAAAAGTGGCCCCCAGTGGGGGCT
modifications: listed as DNA, chemistry not fully specified
B8: cr473 (nucleic acid)
guide: GTTTAAGAGCTAAGCTGGAAACAGCATAGCAAGTTTAAATAAGGCTAGTCCGATATAAACTTGCAAAAGTGGCACCGAGTCGGTGCT
modifications: listed as DNA, chemistry not fully specified
B9: cr252 (nucleic acid)
guide: GTTTAAGAGCTAAGCTGGAAACAGCATAGCAAGTTTAAATAAGGCTAGTCCATTATCAACTTGAAAAAGTGGCACCGAGTCGGTGCT
modifications: listed as DNA, chemistry not fully specified
B10: cr398 (nucleic acid)
guide: GTTTAAGAGCTAAGCTGGAAACAGCATAGCAAGTTTGAATAAGGCTAGTCCGTTATCAACTTGAAAAAGTGGCACCGAGTCGGTGCT
modifications: listed as DNA, chemistry not fully specified
B11: cr249 (nucleic acid)
guide: GTTTAAGAGCTAAGCTGGAAACAGCATAGCAAGTTTAAATAAGGCTAGTCCGTGATTAACTTGAAAAAGTGGCACCGAGACGGTGCT
modifications: listed as DNA, chemistry not fully specified
B12: cr924 (nucleic acid)
guide: GTTTAAGAGCTAAGCTGGAAACAGCATAGCAAGTTTAAATAAAGCTAGTCTGTTATCAACTTGAAAAAGTGGCGCCGAGTCGGCGCT
modifications: listed as DNA, chemistry not fully specified
B13: cr088 (nucleic acid)
guide: ATTTAGGAGCTAAGCTGGAAACAGCATAGCAAGTTTAAATAAGGCTAGTCCGTTATCAACTTGAAAAAGTGGCACCGAGTCGGTGCT
modifications: listed as DNA, chemistry not fully specified
B14: cr856 (nucleic acid)
guide: GTTTAAGAGCTAAGCTGGAAACAGCATAGCAAGTTTAAATAAGGATATTCCGTTATCAAATTGAAAAATTGGCTCCGAGTCGGAGCT
modifications: listed as DNA, chemistry not fully specified
B15: cr315 (nucleic acid)
guide: GTTTAAGAGCTAAGCTGGAAACAGCATAGCAAGTTTAAATAAAGCTAGTCTGTTATCAACTGGAAACAGTGGCCCCGAGTCGGGGCT
modifications: listed as DNA, chemistry not fully specified
B16: cr471 (nucleic acid)
guide: GTTTAAGAGCTAAGCTGGAAACAGCATAGCAAGTTTAAATAAGGCTAGTCCGTTATCAACTTGAAAAAGTGTCACACAGTGTGTGAT
modifications: listed as DNA, chemistry not fully specified
B17: cr813 (nucleic acid)
guide: GTTTAAGAGCTAAGCTGGAAACAGCATAGCAAGTTTAAATAAGGCTAGTCCGTTATCTACTTGAAAAAGTGGCACCGAGTCGGTGCT
modifications: listed as DNA, chemistry not fully specified
B18: cr527 (nucleic acid)
guide: GTTTAAGAGCTAAGCTGGAAACAGCATAGCAAGTGTAAATAAGGCTAGTCCGTTATCAACTTGAAAAAGTGGCACCGAGTCGGTGCT
modifications: listed as DNA, chemistry not fully specified
B19: cr003 (nucleic acid)
guide: TTTTAAGAGCTAAGCTGGAAACAGCATAGCAAGTTTAAATAAGGCTAGTCCGTTATCAACTTGAAAAAGTGGCACCGAGTCGGTGCT
modifications: listed as DNA, chemistry not fully specified
B20: cr296 (nucleic acid)
guide: GTTTAAGAGCTAAGCTGGAAACAGCATAGCAAGTTTAAATAAGGCTAGTCCGTTATCAACTTGAAAAAGTGGTACGCAGTGCGTACT
modifications: listed as DNA, chemistry not fully specified
B21: cr343 (nucleic acid)
guide: GTTTAAGAGCTAAGCTGGAAACAGCATAGCAAGTTTAAATAAGGCTAGTCCGTTATCATGAAGAAAATGAGGCACCGAGTCGGTGCT
modifications: listed as DNA, chemistry not fully specified
B22: cr404 (nucleic acid)
guide: GTTTAAGAGCTAAGCTGGAAACAGCATAGCAAGTTTAAATAAGGCTAGTCCGTTATCCACTTGATAAAGTGGCACCGAGTCGGTGCT
modifications: listed as DNA, chemistry not fully specified
B23: cr755 (nucleic acid)
guide: GTTTAAGAGCTAAGCTGGAAACAGCATAGCAAGCTTAAATAAGGCTAGTCCGTTATCAACTTGAAAAAGTGGCTCCGAGTCGGAGCT
modifications: listed as DNA, chemistry not fully specified
B24: cr545 (nucleic acid)
guide: GTTTAAGAGCTAAGCTGGAAACAGCATAACAAGTTTAAATAAGGCTAGTCCGTCATAAACTTGAAAAAGTGGCACCGAGTCGGTGCT
modifications: listed as DNA, chemistry not fully specified
B25: cr432 (nucleic acid)
guide: GTTTAAGAGCTAAGCTGGAAACAGCATAGCAAGCTTAAATAAGGCTAGTCCGTTATCAAGTTGAAAAACTGGCACCGAGTCGGTGCT
modifications: listed as DNA, chemistry not fully specified
B26: cr127 (nucleic acid)
guide: GTTTAAGAGCTAAGCTGGAAACAGCATAGCAAGTTTAAATATGGCTAGTCCGTTATCAACTTGAGAAAGTGGCACCGACTCGGTGCT
modifications: listed as DNA, chemistry not fully specified
B27: cr895 (nucleic acid)
guide: GTTTAAGAGCTAAGCTGGAAACAGCATAGCAATTTTAAATAAGGCTAGTCCGTTATCAACTTGTAAAAGTGGCACCGAGTCGGTGCT
modifications: listed as DNA, chemistry not fully specified
B28: cr196 (nucleic acid)
guide: GTTTAAGAGCTAAGCTGGAAACAGCATAGCAAGTTTAAATAAGGCTAGTCCGTTATCAACTTGAAAAAGTGGCAGCCAGTGGCTGCT
modifications: listed as DNA, chemistry not fully specified
B29: cr200 (nucleic acid)
guide: GTTTAAGAGCTAAGCTGGAAACAGCATAGCAAATTTAAATAAGGCTAGTCCGTTATCAACTTGAAAAAGTGGCACCGAGTCGGTGCC
modifications: listed as DNA, chemistry not fully specified
B30: cr459 (nucleic acid)
guide: GTTTAAGAGCTAAGCTGGAAACAGCATAGCGAGTTTAAATAAGGCTAGTCCGTTATCTACTTGAAAAAGTGGCACCGAGTCGGTGCT
modifications: listed as DNA, chemistry not fully specified

Each molecule was assayed on K562 CRISPRi cells (assay: Constant region variant library pooled growth screen, K562). Details: sgRNA constant region variants; activity relative to the original, un-modified constant region cr995.
Format: cell-based, human
Summary of the method: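 Cells were selected with puromycin for 2 days and then kept in RPMI-1640 spinner cultures, with duplicates handled separately. Targeting sequences comprised 3 sgRNAs per essential gene for 10 genes plus six non-targeting controls. Activities were normalized against pairing with the unmodified scaffold.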
Molecule B1 has a Mean relative activity of 1.042. Molecule B2 has a Mean relative activity of 1.041.

Same assay, conditions: sgRNA constant region variants; relative to the original, un-modified constant region cr995; CRISPRi
For B3, the Mean relative activity was 0.3992. Work on B4 yielded a Mean relative activity of 0.3731. Work on B5 yielded a Mean relative activity of 0.3699. B6 was tested, and the Mean relative activity was 0.3746. For B7, the Mean relative activity was 0.3609. With B8 the Mean relative activity was 0.3892. B9 gave a Mean relative activity of 0.3581. In the case of B10, the Mean relative activity is reported as 0.3667. B11 was tested, and the Mean relative activity was 0.3886. Work on B12 yielded a Mean relative activity of 0.3638. B13 was tested, and the Mean relative activity was 0.3745. In the case of B14, the Mean relative activity is reported as 0.3826. Molecule B15 has a Mean relative activity of 0.3642. B16 showed a Mean relative activity of 0.3625. B17 was tested, and the Mean relative activity was 0.3803. With B18 the Mean relative activity was 0.3802. Work on B19 yielded a Mean relative activity of 0.3678. For B20, the Mean relative activity was 0.3911. B21 showed a Mean relative activity of 0.3733. B22 was tested, and the Mean relative activity was 0.3784. For B23, the Mean relative activity was 0.3814. B24 was tested, and the Mean relative activity was 0.3936. B25 gave a Mean relative activity of 0.3923. With B26 the Mean relative activity was 0.3659. Molecule B27 has a Mean relative activity of 0.3709. For B28, the Mean relative activity was 0.3626. For B29, the Mean relative activity was 0.3799. B30 was tested, and the Mean relative activity was 0.3837.
